# In paper PMC3742808:
# Like-named read-outs stand apart in the source and are kept apart here.
# What was measured:
# [1] = target: recombinant human APC/C (without CDH1) (human) (UniProt Q9H1A4); assay: enzyme inhibition
# [2] = target: recombinant human APC/C (without CDH1) (human) (UniProt Q9H1A4); assay: enzyme inhibition; remark: listed apart in the source
substance,measurement,setting,value
EMI1^T (synthetic peptide corresponding to the EMI1 C-terminal tail),Ki,[1],13 µM
same,Ki,[2],48 µM
